# From patent US20090031456A1 (MICHIGAN STATE UNIVERSITY, published 2009)
# B1: 6×His-HopM1 1-300 (other)
# chain: MISSRIGGAGGVELSRVNQQHDTVPAQTAHPNAVTAGMNPPLTPDQSGSHATESSSAGAARLNVAARHTQLLQAFKAEHGTAPVSGAPMISSRAALLIGSLLQAEPLPFEVMAEKLSPERYQLKQFQGSDLQQRLEKFAQPGQIPDKAEVGQLIKGFAQSVADQLEHFQLMHDASPATVGQHAKADKATLAVSQTALGEYAGRASKAIGEGLSNSIASLDEHISALDLTLQDAEQGNKESLHADRQALVDAKTTLVGLHADFVKSPEAKRLASVAAHTQLDNVVSDLVTARNTVGGWKGA
# notes: also called HopM1-300
# Target: AtMIN7-HA (Arabidopsis thaliana, UniProt F4IXW2 1-1739)
# Assay: transient co-expression in N. benthamiana leaves, pull-down and immunoblot
# AtMIN7-HA, sequence (F4IXW2 other isoform, or with tags, fused parts or gaps limits assumed): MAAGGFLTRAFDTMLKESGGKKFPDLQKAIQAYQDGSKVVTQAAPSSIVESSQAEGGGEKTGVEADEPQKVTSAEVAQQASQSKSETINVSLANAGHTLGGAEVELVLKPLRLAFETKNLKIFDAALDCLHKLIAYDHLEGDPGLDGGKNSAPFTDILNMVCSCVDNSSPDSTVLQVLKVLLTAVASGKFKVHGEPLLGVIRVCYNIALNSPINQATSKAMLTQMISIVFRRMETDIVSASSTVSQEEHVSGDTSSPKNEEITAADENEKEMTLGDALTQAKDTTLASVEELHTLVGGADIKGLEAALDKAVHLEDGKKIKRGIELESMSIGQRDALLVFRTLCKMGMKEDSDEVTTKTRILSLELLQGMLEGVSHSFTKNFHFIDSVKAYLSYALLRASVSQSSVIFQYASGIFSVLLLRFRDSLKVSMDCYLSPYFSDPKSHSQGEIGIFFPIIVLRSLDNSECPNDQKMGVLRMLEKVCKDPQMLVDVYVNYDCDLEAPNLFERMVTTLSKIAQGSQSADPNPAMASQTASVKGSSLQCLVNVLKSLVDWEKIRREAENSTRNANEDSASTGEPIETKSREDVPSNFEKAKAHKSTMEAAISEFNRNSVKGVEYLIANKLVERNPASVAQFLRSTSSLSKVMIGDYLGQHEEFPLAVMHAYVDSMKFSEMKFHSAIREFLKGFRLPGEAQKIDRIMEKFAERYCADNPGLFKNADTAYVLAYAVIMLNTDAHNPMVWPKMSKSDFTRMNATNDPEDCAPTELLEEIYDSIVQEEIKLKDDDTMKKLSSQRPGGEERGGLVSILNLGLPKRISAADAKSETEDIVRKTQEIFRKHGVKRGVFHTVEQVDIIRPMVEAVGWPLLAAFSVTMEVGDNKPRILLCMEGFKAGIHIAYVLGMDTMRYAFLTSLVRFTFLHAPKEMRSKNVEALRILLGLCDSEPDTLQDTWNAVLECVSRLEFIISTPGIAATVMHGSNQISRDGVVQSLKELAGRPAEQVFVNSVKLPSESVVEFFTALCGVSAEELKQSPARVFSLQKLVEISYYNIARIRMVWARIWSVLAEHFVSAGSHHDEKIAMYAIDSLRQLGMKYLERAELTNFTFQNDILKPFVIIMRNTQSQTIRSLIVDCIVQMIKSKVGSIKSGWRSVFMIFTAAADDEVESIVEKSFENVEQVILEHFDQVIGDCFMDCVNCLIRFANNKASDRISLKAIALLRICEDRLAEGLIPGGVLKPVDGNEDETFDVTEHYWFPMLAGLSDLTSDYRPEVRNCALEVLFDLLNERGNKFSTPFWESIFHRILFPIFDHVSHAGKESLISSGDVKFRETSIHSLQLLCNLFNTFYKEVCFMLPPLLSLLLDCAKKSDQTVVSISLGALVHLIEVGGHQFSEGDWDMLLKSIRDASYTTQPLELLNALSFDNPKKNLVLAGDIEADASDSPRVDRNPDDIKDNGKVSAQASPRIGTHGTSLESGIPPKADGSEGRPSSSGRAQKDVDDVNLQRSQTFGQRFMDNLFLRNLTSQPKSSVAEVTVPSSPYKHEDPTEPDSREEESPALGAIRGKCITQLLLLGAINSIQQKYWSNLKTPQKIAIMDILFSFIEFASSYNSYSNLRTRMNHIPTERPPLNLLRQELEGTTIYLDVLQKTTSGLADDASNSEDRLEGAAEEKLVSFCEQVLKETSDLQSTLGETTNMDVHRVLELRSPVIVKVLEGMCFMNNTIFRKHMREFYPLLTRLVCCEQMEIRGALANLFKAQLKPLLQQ
binder,measurement,value
B1,binding result,binds
